# The RNAGym collection of RNA variant scans (doi:10.1073/pnas.2313332121)
# Variants at the floor of the assay were thinned out.
# B1: TPR 5TU (parent)
# chain: GGAUCUUCUCGAUCUAACAAAAAAGACAAAUCUGCCACAAAGCUUGAGAGCAUCUUCGGAUGCAGAGGCGGCAGCCUUCGGUGGCGCGAUAGCGCCAACGUUCUCAACUAUGACACGCAAAACGCGUGCUCCGUUGAAUGGAGUUUAUCAUG
# Variants of: B1
# Test: polymerase ribozyme fitness, log enrichment relative to wild type (log ratio); higher = more active; in vitro selection for triplet polymerase activity
# Method in brief: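 Mutant libraries for each subunit of a heterodimeric triplet polymerase ribozyme were made by PCR and then transcribed. Each library underwent one round of in vitro selection in triplicate: annealing with a biotinylated primer, the partner subunit and triplets, frozen incubation at −7 °C, gel excision of extended constructs, streptavidin-bead capture and RT-PCR. Input and output libraries were Illumina-sequenced, and only genotypes with ≥10 input reads and ≥1 read per output were kept. Fitness is the logarithm, base 2, of genotype enrichment over wild-type enrichment, computed from inverse-variance-weighted replicate averages.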
row,Variant,polymerase ribozyme fitness (log ratio)
1,GGAUCUUCUCGAUCUAACAAAAAAGACAAAUCUGCCACAAAGCUUGAGAGCAUCUUCGGAUGCAGAGGCGGCAGCCUUCGGUGGCGCGAUAGAGCCAACGUUCCCAACUAUGACACGCAAAACGCGUGCUCCGUUGAAUGGAGUUUAUCAUG [C93A U104C],-3.27
2,GGAUCUUCUCGAUCUAACAAAAAAGACAAAUCUGCCACAAAGCUUGAGAGCAUCUUCGGAUGCAGAGGCGGCAGCCUUCGGUGGCGCGAUAGAGCCAACGUUCUCAGCUAUGACACGCAAAACGCGUGCUCCGUUGAAUGGAGUUUAUCAUG [C93A A107G],≤ -4.2
3,GGAUCUUCUCGAUCUAACAAAAAAGACAAAUCUGCCACAAAGCUUGAGAGCAUCUUCGGAUGCAGAGGCGGCAGCCUUCGGUGGCGCGAUAGAGCCAACGUUCUCAACUAUGACACGCAAAACGCGUGCUCCGUUGAAUGGAGUUUAGCAUG [C93A U148G],≤ -4.2
4,GGAUCUUCUCGAUCUAACAAAAAAGACAAAUCUGCCACAAAGCUUGAGAGCAUCUUCGGAUGCAGAGGCGGCAGCCUUCGGUGGCGCGAUAGAGCCAACGUUCUCAACUAUGACACGCAAAACGCGUGCUCCGUUGAAUGGAGUUUACCAUG [C93A U148C],-3.62
5,GGAUCUUCUCGAUCUAACAAAAAAGACAAAUCUGCCACAAAGCUUGAGAGCAUCUUCGGAUGCAGAGGCGGCAGCCUUCGGUGGCGCGAUAGAGCCAACGUUCUCAACUAUGACACGCAAAACGCGUGCUCCGUUGAAUGGAGUUUAUCCUG [C93A A150C],-3.74
6,GGAUCUUCUCGAUCUAACAAAAAAGACAAAUCUGCCACAAAGCUUGAGAGCAUCUUCGGAUGCAGAGGCGGCAGCCUUCGGUGGCGCGAUAUCGCAAACGUUCUCAACUAUGACACGCAAAACGCGCGCUCCGUUGAAUGGAGUCUCUCAUG [G92U C96A U127C U145C A147C],≤ -4.2
7,GGAUCUUCUCGAUCUAACAAAAAAGACAAAUCUGCCACAAAGCUUGAGAGCAUCUUCGGAUGCAGAGGCGGCAGCCUUCGGUGGCGCGAUAGAGCCAACGUUCUAAACUAUGACACGCAAAACGCGUGCUCCGUUGAAUGGAGUUUAUCAUG [C93A C105A],≤ -4.2
8,GGAUCUUCUCGAUCUAACAAAAAAGACAAAUCUGCCACAAAGCUUGAGAGCAUCUUCGGAUGCAGAGGCGGCAGCCUUCGGUGGCGCGAUAGGGCCACCGUUCUCAACUAUGACACGCAAAACGCGUGCUCCGUUGAAUGGACUUUAUCAUG [C93G A98C G143C],-4.05
9,GGAUCUUCUCGAUCUAACAAAAAAGACAAAUCUGCCACAAAGCUUGAGAGCAUCUUCGGAUGCAGAGGCGGCAGCCUUCGGUGGCGCGAUAGAGCCAACGUUCUCAACUAUGACACGCAAAACGCGUGCUCCGUUGUAUGGAGUUUAUCAUG [C93A A137U],≤ -4.2
10,GGAUCUUCUCGAUCUAACAAAAAAGACAAAUCUGCCACAAAGCUUGAGAGCAUCUUCGGAUGCAGAGGCGGCAGCCUUCGGUGGCGCGAUAGAGCCAACGUUCUCAACUAUGACACGCAAAACCCGUGCUCCGUUGAAUGGAGUUUAUCAUG [C93A G124C],-2.88
11,GGAUCUUCUCGAUCUAACAAAAAAGACAAAUCUGCCACAAAGCUUGAGAGCAUCUUCGGAUGCAGAGGCGGCAGCCUUCGGUGGCGCGAUAGAGCCAAGGUUCUCAACUAUGACACGCAAAACGCGUGCUCCGUUGAAUGGAGUUUAUCAUG [C93A C99G],-3.88
12,GGAUCUUCUCGAUCUAACAAAAAAGACAAAUCUGCCACAAAGCUUGAGAGCAUCUUCGGAUGCAGAGGCGGCAGCCUUCGGUGGCGCGAUAGGGCCAACGUUCUCAACUAUGACACGCUAAACGCGUGCUCCGUUGAAUGGAGUUUAUCAUG [C93G A119U],-3.51
13,GGAUCUUCUCGAUCUAACAAAAAAGACAAAUCUGCCACAAAGCUUGAGAGCAUCUUCGGAUGCAGAGGCGGCAGCCUUCGGUGGCGCGAUAUCGCCAACGGUCUCAACUAUGACACGCAAAACGCGUGCUUCGUUGAAUGGAGUUUAUCAUG [G92U U101G C131U],0.547
14,GGAUCUUCUCGAUCUAACAAAAAAGACAAAUCUGCCACAAAGCUUGAGAGCAUCUUCGGAUGCAGAGGCGGCAGCCUUCGGUGGCGCGAUAUCGCCAACGUUCUCAACUAUGACACGCAAAACGCGUGCUCCGUUGAGUGGAGUUUAUCAUG [G92U A138G],-3.48
15,GGAUCUUCUCGAUCUAACAAAAAAGACAAAUCUGCCACAAAGCUUGAGAGCAUCUUCGGAUGCAGAGGCGGCAGCCUUCGGUGGCGCGAUAGAGCCAACGUUCUCAACUAUGACACGCGUAACGCGUGCUCCGUUGAAUGGAGUUUAUCAUG [C93A A119G A120U],-2.53
16,GGAUCUUCUCGAUCUAACAAAAAAGACAAAUCUGCCACAAAGCUUGAGAGCAUCUUCGGAUGCAGAGGCGGCAGCCUUCGGUGGCGCGAUAUCGCCAACGUUCUCAACUAUGACACGCAAGACGCGUGCUCCGUUGAAUGGACUGUAUCAUG [G92U A121G G143C U145G],-3.44
17,GGAUCUUCUCGAUCUAACAAAAAAGACAAAUCUGCCACAAAGCUUGAGAGCAUCUUCGGAUGCAGAGGCGGCAGCCUUCGGUGGCGCGAUAGAGCCAACGUUCUCAACUAUGACACGGAAAACGCGUGCUCCGUUGAAUGGAGUUUAUCAUG [C93A C118G],-3.44
18,GGAUCUUCUCGAUCUAACAAAAAAGACAAAUCUGCCACAAAGCUUGAGAGCAUCUUCGGAUGCAGAGGCGGCAGCCUUCGGUGGCGCGAUAGAGCCAACGUUCUCAACUAUGACACGUAAAACGCGUGCUCCGUUGAAUGGAGUUUAUCAUG [C93A C118U],-3.29
19,GGAUCUUCUCGAUCUAACAAAAAAGACAAAUCUGCCACAAAGCUUGAGAGCAUCUUCGGAUGCAGAGGCGGCAGCCUUCGGUGGCGCGAUAGGGCCAUCGUUCUCAACUAUGAAACGCAAAACGCGUGCUCCGUUGAAUGGAGUUUAUCAUG [C93G A98U C114A],-3.85
